Starred links: 1 amine or outer side, 2 acyl side, 3 side chain; linkers in the order of their positions; H or OH if unused. Non-standard residues stand in square brackets, D forms with d. Primed or numbered codes have the meaning given here. dProc3CH24Pal = (2R,3S)-3-(4-pyridylmethyl)pyrrolidine-2-carboxylic acid, O=C([C@H]1[C@@H](Cc2ccncc2)CCN1[*:1])[*:2]; Bip4CONMe2″ = 4'-(dimethylcarbamoyl)biphenylalanine, CN(C)C(=O)c1ccc(-c2ccc(C[C@H](N[*:1])C(=O)[*:2])cc2)cc1; OrnMe3 = ornithine with side-chain trimethylammonium, C[N+](C)(C)CCC[C@H](N[*:1])C(=O)[*:2]; 4PyrimAla = (2S)-2-amino-3-pyrimidin-4-yl-propanoic acid, O=C([C@H](Cc1ccncn1)N[*:1])[*:2]; Trp(4-Cl)(βS-Me) = C[C@@H](c1c[nH]c2cccc(Cl)c12)[C@H](N)C(=O)O; dPro(4R-(4-pyridylmethyl)) = O=C(O)[C@H]1C[C@@H](Cc2ccncc2)CN1; Trp(βS-Me,4-F) = C[C@@H](c1c[nH]c2cccc(F)c12)[C@H](N)C(=O)O; Bip(4'-CONH2) = NC(=O)c1ccc(-c2ccc(C[C@H](N)C(=O)O)cc2)cc1; Bip(4'-COOH) = N[C@@H](Cc1ccc(-c2ccc(C(=O)O)cc2)cc1)C(=O)O; Ala(1-bicyclo(1.1.1)pentyl) = N[C@@H](CC12CC(C1)C2)C(=O)O; dPro(4R-Bzl(4-F)) = O=C(O)[C@H]1C[C@@H](Cc2ccc(F)cc2)CN1; dPro(3S-(4-F-Bn)) = O=C(O)[C@@H]1NCC[C@@H]1Cc1ccc(F)cc1; 1Nal(3S-Me) = C[C@@H](c1cccc2ccccc12)[C@H](N)C(=O)O; Ala(morpholin-4-yl) = N[C@@H](CN1CCOCC1)C(=O)O; Ala(piperazin-1-yl) = N[C@@H](CN1CCNCC1)C(=O)O; Ala(pyrimidin-5-yl) = N[C@@H](Cc1cncnc1)C(=O)O; Phe(4-COOH) = N[C@@H](Cc1ccc(C(=O)O)cc1)C(=O)O; Bip = N[C@@H](Cc1ccc(-c2ccccc2)cc1)C(=O)O; Lys(Me3) = C[N+](C)(C)CCCC[C@H](N)C(=O)O; Phe(4-Br) = N[C@@H](Cc1ccc(Br)cc1)C(=O)O; Pro(cis-4-F) = O=C(O)[C@@H]1C[C@H](F)CN1; Ala(4-THP) = N[C@@H](CC1CCOCC1)C(=O)O; d(αMeD) = C[C@@](N)(CC(=O)O)C(=O)O; 4Pal = N[C@@H](Cc1ccncc1)C(=O)O; aThr = C[C@H](O)[C@H](N)C(=O)O; Dab = NCC[C@H](N)C(=O)O; Aib = CC(C)(N)C(=O)O
B1: SEQ ID NO 295 (peptide)
peptide: cyclo([Bip4CONMe2″][4Pal][Phe(4-COOH)]G[Pro(cis-4-F)][Trp(βS-Me,4-F)][Aib]SW[d(αMeD)][Ala(4-THP)]Q[Dab]G[dPro(4R-(4-pyridylmethyl))])
modifications: ring closure inferred; not fully specified (N-terminus); printed as cyclic, Bip4CONMe2-4Pal-Phe4COOH-G-Proc4F-SbMeW4F-Aib-S-W-daMeD-AlaTHP4-Q-Dab-G-dProc4CH24Pal
B2: SEQ ID NO 298 (peptide)
peptide: cyclo([Bip(4'-COOH)][4Pal][Phe(4-COOH)]G[Pro(cis-4-F)][Trp(βS-Me,4-F)][Aib]SW[Aib][Lys(Me3)]Q[Dab]G[dPro(4R-Bzl(4-F))])
modifications: ring closure inferred; not fully specified (N-terminus); printed as cyclic, Bip4CO2H-4Pal-Phe4COOH-G-Proc4F-sbMeW4F-Aib-S-W-Aib-LysMe3-Q-Dab-G-dProc4Bn4F
B3: SEQ ID NO 296 (peptide)
peptide: cyclo([Bip(4'-CONH2)][4Pal][Phe(4-COOH)]G[Pro(cis-4-F)][Trp(βS-Me,4-F)][Aib]SW[d(αMeD)][Ala(4-THP)]Q[Dab]G[dPro(4R-(4-pyridylmethyl))])
modifications: ring closure inferred; not fully specified (N-terminus); printed as cyclic, Bip4CONH2-4Pal-Phe4COOH-G-Proc4F-SbMeW4F-Aib-S-W-daMeD-AlaTHP4-Q-Dab-G-dProc4CH24Pal
B4: SEQ ID NO 297 (peptide)
peptide: cyclo([Bip(4'-COOH)][4Pal][Phe(4-COOH)]G[Pro(cis-4-F)][Trp(βS-Me,4-F)][Aib]SW[Aib][OrnMe3]Q[Dab]G[dPro(4R-Bzl(4-F))])
modifications: ring closure inferred; not fully specified (N-terminus); printed as cyclic, Bip4CO2H-4Pal-Phe4COOH-G-Proc4F-sbMeW4F-Aib-S-W-Aib-OrnMe3-Q-Dab-G-dProc4Bn4F
B5: SEQ ID NO 293 (peptide)
peptide: cyclo([Bip][4Pal][Phe(4-COOH)]G[Pro(cis-4-F)][Trp(βS-Me,4-F)][Aib]SW[d(αMeD)][aThr]Q[Dab]G[dPro(4R-(4-pyridylmethyl))])
modifications: ring closure inferred; not fully specified (N-terminus); printed as cyclic, Bip-4Pal-Phe4COOH-G-Proc4F-SbMeW4F-Aib-S-W-daMeD-alT-Q-Dab-G-dProc4CH24Pal
B6: SEQ ID NO 294 (peptide)
peptide: cyclo([Bip][4Pal][Phe(4-COOH)]G[Pro(cis-4-F)][Trp(βS-Me,4-F)][Aib]SW[d(αMeD)][Ala(4-THP)]Q[Dab]G[dPro(4R-(4-pyridylmethyl))])
modifications: ring closure inferred; not fully specified (N-terminus); printed as cyclic, Bip-4Pal-Phe4COOH-G-Proc4F-SbMeW4F-Aib-S-W-daMeD-AlaTHP4-Q-Dab-G-dProc4CH24Pal
B7: SEQ ID NO 299 (peptide)
peptide: cyclo([Phe(4-Br)][4Pal][Phe(4-COOH)]G[Pro(cis-4-F)][Trp(βS-Me,4-F)][Aib]SW[d(αMeD)][Ala(pyrimidin-5-yl)]Q[Dab]G[dPro(3S-(4-F-Bn))])
modifications: ring closure inferred; not fully specified (N-terminus); printed as cyclic, Phe4Br-4Pal-Phe4COOH-G-Proc4F-SbMeW4F-Aib-S-W-daMeD-PyrimAla-Q-Dab-G-dProc3Bn4F
B8: SEQ ID NO 292 (peptide)
peptide: cyclo([Bip][4Pal][Phe(4-COOH)]G[Pro(cis-4-F)][Trp(4-Cl)(βS-Me)][Aib]SW[d(αMeD)][Ala(pyrimidin-5-yl)]Q[Dab]G[dPro(4R-(4-pyridylmethyl))])
modifications: ring closure inferred; not fully specified (N-terminus); printed as cyclic, Bip-4Pal-Phe4COOH-G-Proc4F-SbMeW4Cl-Aib-S-W-daMeD-PyrimAla-Q-Dab-G-dProc4CH24Pal

What follows are binders tested against Recombinant human IL-1β (BioLegend 579404) (human, UniProt P01584 117-269) (assay: cell-based or functional assay).

| MRC5 IC50 | Binder |
| --- | --- |
| 0.012 nM | B1 |
| 0.015 nM | B2 |
| 0.013 nM | B3 |
| 0.01 nM | cyclo([Bip(4'-COOH)][4Pal][Phe(4-COOH)]G[Pro(cis-4-F)][Trp(βS-Me,4-F)][Aib]SW[d(αMeD)][Ala(morpholin-4-yl)]Q[Dab]G[dPro(3S-(4-F-Bn))]) (ring closure inferred) [SEQ ID NO 286] |
| 0.018 nM | cyclo([Bip][4Pal][Phe(4-COOH)]G[Pro(cis-4-F)][1Nal(3S-Me)][Aib]SW[d(αMeD)][Ala(4-THP)]Q[Dab]G[dPro(4R-(4-pyridylmethyl))]) (ring closure inferred) [SEQ ID NO 290] |
| 0.015 nM | cyclo([Bip(4'-COOH)][Ala(1-bicyclo(1.1.1)pentyl)][Phe(4-COOH)]G[Pro(cis-4-F)][Trp(βS-Me,4-F)][Aib]SW[d(αMeD)][4PyrimAla]Q[Dab]G[dProc3CH24Pal]) (ring closure inferred) [SEQ ID NO 284] |
| 0.015 nM | cyclo([Bip][4Pal][Phe(4-COOH)]G[Pro(cis-4-F)][Trp(4-Cl)(βS-Me)][Aib]SW[d(αMeD)][aThr]Q[Dab]G[dPro(4R-(4-pyridylmethyl))]) (ring closure inferred) [SEQ ID NO 289] |
| 0.022 nM | B4 |
| 0.011 nM | cyclo([Bip(4'-COOH)][4Pal][Phe(4-COOH)]G[Pro(cis-4-F)][Trp(βS-Me,4-F)][Aib]SW[d(αMeD)][Ala(piperazin-1-yl)]Q[Dab]G[dPro(3S-(4-F-Bn))]) (ring closure inferred) [SEQ ID NO 287] |
| 0.01 nM | B5 |
| 0.014 nM | B6 |
| 0.019 nM | cyclo([Bip][4Pal][Phe(4-COOH)]G[Pro(cis-4-F)][1Nal(3S-Me)][Aib]SW[d(αMeD)][aThr]Q[Dab]G[dPro(4R-(4-pyridylmethyl))]) (ring closure inferred) [SEQ ID NO 288] |
| 0.018 nM | cyclo([Bip][4Pal][Phe(4-COOH)]G[Pro(cis-4-F)][1Nal(3S-Me)][Aib]SW[d(αMeD)][Ala(pyrimidin-5-yl)]Q[Dab]G[dPro(4R-(4-pyridylmethyl))]) (ring closure inferred) [SEQ ID NO 291] |
| 0.012 nM | B7 |
| 0.015 nM | B8 |
| 0.013 nM | cyclo([Bip(4'-COOH)][Ala(1-bicyclo(1.1.1)pentyl)][Phe(4-COOH)]G[Pro(cis-4-F)][Trp(βS-Me,4-F)][Aib]SW[d(αMeD)][4PyrimAla]Q[Dab]G[dPro(4R-(4-pyridylmethyl))]) (ring closure inferred) [SEQ ID NO 285] |
